Assay: label from the status in PepcDB records

Protein production, failed:
MAELENPSVMSKLIAFLSSLLERVAESNDLTRRVATQSQRVSVFHGLSRPTITIQSYLERIFKYANCSPSCFVVAYVYLDRFTHRQPSLPINSFNVHRLLITSVMVAAKFLDDLYYNNAYYAKVGGISTKEMNFLELDFLFGLGFELNVTPNTFNAYFSYLQKEMTLLQPLSLVVVPSSRSLITFNDDEASHQKQQQQQLAV
MAELGITLRTVQSLGPGETIWDAGHRAAVRGFGVRRQRGAPVYVLKYRAHGRQRFFTIGPHGSPWTPERARREAKRLLGLVADGKDPADDRAEAALQAADTLLKIADQYLKHAKQKQRPRTYSEIERYLLTAWKPLHPVSVFLIKRRHVAIRIAEIATGQGAVTAARARAALSAMFNWAIREGLDIPANPVLGTNRPAAPRSRDRVLADGELAEIWAALGDDDYGRIVKLLLLTAQRREEVGSMRRTELDLENSVWKIPGNRTKNHREHKVPLTKAAIALIPLPRGNREYVFGDGPRREGDNHRGYSGWSKSKAGLDARLLAVRQKALDAGVAAEPLPDWHLHDLRRTAATVMADRLGVFPHIVEAVLNHVSGHRAGVAGVYNLARYETDMRAALNAWADNIKDIVAS
MAENGESSGPPRPSRGPAAAQGSAAAPAEPKIIKVTVKTPKEKEEFAVPENSSVQQFKEAISKRFKSQTDQLVLIFAGKILKDQDTLIQHGIHDGLTVHLVIKSQNRPQGQSTQPSNAAGT
MAEQKNHNNELNVEDALTQSEAFLVKNKKAIIGAVVAVIVIVAGAILYKNFYAEPREEKAQAALFKSEQYFEQSAYEQALNGDSIGSIGFLKVADQFSGTKAANLAKAYAGICYQNLGKYEEAIKALDGFSGDDQMVAPAIQGAIGNCYAQLGQLDKATSALLKAADHADNSTLSPIFLLQAGEILMKQGKNEEAVKAFTKIKDKYFQSYQAMDIDKYIEQAKLLKK
MAESGVSVGSESLQLYEAQFFGFTPETCTLRVRDAFRDSLNHILVAVESVFVKRLCPGRDPPAELRLTARESTQKLRQFLQERFEIMFQRMKGMLIDRMLSIPQNVLLPEDQMHQKYPEGKEELTKLQESIAKLLQAYEAEVCSKQALLAELEEQKETQKQLDEVLRWIEELRVSWRREGMGNVQDSVRHMIETVGQLQDVVGKINKQNSALDEV
MAETAAGVGRFKTNYAVERKIEPFYKGGKAQLDQTGQHLFCVCGTRVNILEVASGAVLRSLEQEDQEDITAFDLSPDNEVLVTASRALLLAQWAWQEGSVTRLSKAIHTAPVATMAFDPTSTLLATGGCDGAVRVWDIVRHYGTHHFRGSPGVVHLVAFHPDPTRLLLFSSATDAAIRVWSLQDRSCLAVLTAHYSAVTSLAFSADGHTMLSSGRDKICIIWDLQSCQATRTVPVFESVEAAVLLPEEPVSQLGVKSPGLYFLTAGDQGTLRVWEAASGQCVYTQAQPPGPGQELTHCTLAHTAGVVLTATADHNLLLYEARSLRLQKQFAGYSEEVLDVRFLGPEDSHVVVASNSPCLKVFELQTSACQILHGHTDIVLALDVFRKGWLFASCAKDQSVRIWRMNKAGQVMCVAQGSGHTHSVGTVCCSRLKESFLVTGSQDCTVKLWPLPKALLSKNTAPDNGPILLQAQTTQRCHDKDINSVAIAPNDKLLATGSQDRTAKLWALPQCQLLGVFSGHRRGLWCVQFSPMDQVLATASADGTIKLWALQDFSCLKTFEGHDASVLKVAFVSRGTQLLSSGSDGLVKLWTIKNNECVRTLDAHEDKVWGLHCSRLDDHALTGASDSRVILWKDVTEAEQAEEQARQEEQVVRQQELDNLLHEKRYLRALGLAISLDRPHTVLTVIQAIRRDPEACEKLEATMLRLRRDQKEALLRFCVTWNTNSRHCHEAQAVLGVLLRREAPEELLAYEGVRAALEALLPYTERHFQRLSRTLQAAAFLDFLWHNMKLPVPAAAPTPWETHKGALP
MAETSIEWTDVTWNPVAGCTVLTAGCTNCYAMRMAARLEAMGVEKYAGLTRKSGGRAKWTGRIFLDRKALSIPASWSKPRRVFVNSMSDLFHSDVPTDFISDVWKVMAQTPRHTYQILTKRPDRMVEIVPGLAKLRNVWLGTSVEDARVIYRIDKLRQVPAAVRFVSFEPLIGSVSGAGLRNIHWAIVGGESGPKARSMDPAWVDEIESMCRDQGAAFFFKQWGGKNKKAAGRTLNGRLYDEMPAPSMP
MAEVLVYVDHVDGAVRKPTLELLTLARRIGEPVALALGSGAENTAAALAEHGAGKVLTHDAAEYADYLVVPKVDALQAAYEAVSPAAVLIPSSAEGKEIAARLAVRIGSGIITDAVDLEAGDEGPVATQSAFAASFTTKSRVSKGTPVITVKPNSAPVEAAPAAGAVEALSVSFSDKATGTKVTGRTPRESTGRPELTEAAIVVSGGRGVNGAENFAIIEALADSLGAAVGASRAAVDAGWYPHSNQVGQTGKAVSPQLYIASGISGAIQHRAGMQTSKTIVAINKDAEAPIFDLVDYGVVGDLFDVVPQLTDEVKTRKG
